Tested on: UCM12
Sequence (chain, as listed by the source, chain 1 of 3, other chains not shown): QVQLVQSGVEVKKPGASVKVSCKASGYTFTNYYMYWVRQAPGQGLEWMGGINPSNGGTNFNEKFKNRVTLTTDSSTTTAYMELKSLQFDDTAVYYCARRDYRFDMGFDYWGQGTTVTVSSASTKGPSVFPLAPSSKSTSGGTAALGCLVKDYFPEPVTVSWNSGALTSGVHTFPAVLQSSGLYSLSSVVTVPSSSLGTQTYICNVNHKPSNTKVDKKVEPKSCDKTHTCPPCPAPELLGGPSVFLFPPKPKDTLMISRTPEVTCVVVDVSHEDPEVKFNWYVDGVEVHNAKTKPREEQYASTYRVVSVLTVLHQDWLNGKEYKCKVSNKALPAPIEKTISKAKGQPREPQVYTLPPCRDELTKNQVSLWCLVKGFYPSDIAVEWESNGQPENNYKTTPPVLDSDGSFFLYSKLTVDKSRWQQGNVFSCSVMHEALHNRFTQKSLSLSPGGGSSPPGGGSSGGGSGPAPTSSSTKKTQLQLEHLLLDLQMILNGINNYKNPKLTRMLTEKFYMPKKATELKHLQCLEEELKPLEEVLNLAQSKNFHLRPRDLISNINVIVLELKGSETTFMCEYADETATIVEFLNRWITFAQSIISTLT
Sequence (chain, as listed by the source, chain 2 of 3, other chains not shown): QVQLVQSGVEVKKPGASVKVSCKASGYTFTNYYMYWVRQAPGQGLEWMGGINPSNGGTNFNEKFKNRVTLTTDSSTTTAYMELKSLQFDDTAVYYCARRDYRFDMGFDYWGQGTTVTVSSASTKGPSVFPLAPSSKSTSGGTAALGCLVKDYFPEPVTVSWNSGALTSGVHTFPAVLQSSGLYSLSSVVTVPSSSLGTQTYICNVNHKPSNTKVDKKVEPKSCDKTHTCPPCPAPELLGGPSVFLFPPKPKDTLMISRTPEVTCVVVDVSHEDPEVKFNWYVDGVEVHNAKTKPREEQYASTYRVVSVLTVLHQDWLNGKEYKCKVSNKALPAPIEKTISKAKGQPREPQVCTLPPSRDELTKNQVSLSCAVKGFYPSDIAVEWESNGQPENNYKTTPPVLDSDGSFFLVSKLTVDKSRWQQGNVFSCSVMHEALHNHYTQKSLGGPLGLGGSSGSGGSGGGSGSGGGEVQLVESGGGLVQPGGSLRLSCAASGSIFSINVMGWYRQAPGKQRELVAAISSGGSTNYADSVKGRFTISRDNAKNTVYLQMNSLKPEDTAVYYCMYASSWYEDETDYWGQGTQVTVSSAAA

Chain of MMP8 (chain, as listed by the source): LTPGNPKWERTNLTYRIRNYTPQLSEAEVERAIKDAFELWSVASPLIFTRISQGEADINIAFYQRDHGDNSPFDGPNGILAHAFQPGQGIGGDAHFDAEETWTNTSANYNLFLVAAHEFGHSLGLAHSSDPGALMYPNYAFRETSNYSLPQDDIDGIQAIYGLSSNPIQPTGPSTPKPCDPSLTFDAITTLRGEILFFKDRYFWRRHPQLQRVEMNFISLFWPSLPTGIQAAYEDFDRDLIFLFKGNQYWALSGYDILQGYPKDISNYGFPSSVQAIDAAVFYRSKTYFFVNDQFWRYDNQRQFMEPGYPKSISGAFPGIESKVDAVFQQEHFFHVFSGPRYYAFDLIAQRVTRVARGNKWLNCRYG
Chain of MMP9 (chain, as listed by the source): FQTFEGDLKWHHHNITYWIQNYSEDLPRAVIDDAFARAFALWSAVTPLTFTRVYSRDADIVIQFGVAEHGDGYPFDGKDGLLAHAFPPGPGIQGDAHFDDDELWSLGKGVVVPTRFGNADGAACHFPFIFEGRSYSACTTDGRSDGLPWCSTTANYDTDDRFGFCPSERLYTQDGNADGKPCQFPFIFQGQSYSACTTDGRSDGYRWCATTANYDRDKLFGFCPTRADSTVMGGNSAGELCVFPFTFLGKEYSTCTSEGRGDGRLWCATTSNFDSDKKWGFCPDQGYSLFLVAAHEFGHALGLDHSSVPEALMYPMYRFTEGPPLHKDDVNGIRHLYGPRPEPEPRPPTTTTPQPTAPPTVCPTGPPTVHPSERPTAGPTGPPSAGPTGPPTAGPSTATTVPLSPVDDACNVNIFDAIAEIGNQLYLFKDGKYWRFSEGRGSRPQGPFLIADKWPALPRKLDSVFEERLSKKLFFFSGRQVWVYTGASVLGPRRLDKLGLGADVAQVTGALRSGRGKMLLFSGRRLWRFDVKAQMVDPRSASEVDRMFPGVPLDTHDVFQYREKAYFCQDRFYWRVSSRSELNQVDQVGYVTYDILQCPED
Chain of Cathepsin L (chain, as listed by the source): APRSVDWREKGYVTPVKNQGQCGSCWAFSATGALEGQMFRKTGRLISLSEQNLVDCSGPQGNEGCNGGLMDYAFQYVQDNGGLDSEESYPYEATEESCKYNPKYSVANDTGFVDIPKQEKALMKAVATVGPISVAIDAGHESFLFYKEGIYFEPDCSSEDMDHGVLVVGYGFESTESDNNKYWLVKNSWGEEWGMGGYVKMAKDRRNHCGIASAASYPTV

Substance	kcat/Km [M⁻¹ s⁻¹]
Cathepsin L	14000
MMP8	810
MMP9	7900

Reference: US20250250314
